This note sets out measurements from patent US5840530.

Test [1] has as its target recombinant human IL-12 beta2 receptor protein expressed from the B5-10 plasmid on COS cells (human). The test can be described thus: equilibrium binding of 125I-labeled IL-12 to transfected COS cells, Scatchard analysis, single site model.
Test [2] has as its target recombinant human IL-12 beta1 receptor protein (human). The description is as above.

As to “recombinant human IL-12 (Interleukin-12) (from UniProt P29460) (ligand)”, the Kd in test [1] and in test [2] was 2 to 5 nM in each case.
